Source: patent US20230406950A1 (LYVGEN BIOPHARMA, published 2023)
Residue numbers refer to the chain shown, from its start. Values belong to the binder of their own block, whether it stands above or below them.

Columns and labels:
[1] = biological target: T1, human GITR expressed on cells (human, UniProt Q9Y5U5 26-241); assay: flow cytometry (FACS), MFI, CHO cells expressing human GITR
T1 construct: whole, on cells; also called TNFRSF18; CD357
T1 sequence (looked up): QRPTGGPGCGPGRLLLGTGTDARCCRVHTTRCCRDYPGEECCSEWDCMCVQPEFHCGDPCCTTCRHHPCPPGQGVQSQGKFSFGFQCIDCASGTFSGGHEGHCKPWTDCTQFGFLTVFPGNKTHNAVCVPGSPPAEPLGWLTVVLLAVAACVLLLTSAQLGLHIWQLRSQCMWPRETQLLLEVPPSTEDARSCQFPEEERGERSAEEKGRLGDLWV
Procedure: (§1) Anti-GITR/CD137 bi-specific antibodies were analyzed by FACS for their binding properties to human GITR and/or human CD137 expressed on CHO cells. Briefly, cultured cells were harvested, counted and cell viability was evaluated using the Trypan Blue exclusion method. Viable cells were then adjusted to 2×10⁶ cells per mL in PBS containing 2% BSA. 100 μL of this cell suspension were further aliquoted per well into a V-bottom 96-well plate. […] After incubation for 2 hours at 4° C., cells were centrifuged (3 min, 1000× g), washed with 250 μL/well BSA-containing FACS Stain Buffer, resuspended and incubated for an additional 1 hour at 4° C. with 100 μL/well fluorochrome-conjugated anti-IgG antibody for detection of the bisepecific antibody. Cells were then washed with 250 μL/well BSA-containing FACS Stain Buffer, resuspended in 100 μL/well FACS Stain Buffer, acquired and analyzed using a FACS machine. Binding of the bispecific antibodies to human GITR or human CD137 expressing CHO cells were evaluated and the mean fluorescence intensity is plotted in histograms or dot plots.

[2] = biological target: T2, human CD137 expressed on cells (human, UniProt Q07011 24-255); assay: FACS on CHO cells expressing human CD137 (MFI)
T2 construct: whole, on cells; also called 4-1BB; TNFRSF9
Procedure: as §1

T2 sequence (Q07011 24-255): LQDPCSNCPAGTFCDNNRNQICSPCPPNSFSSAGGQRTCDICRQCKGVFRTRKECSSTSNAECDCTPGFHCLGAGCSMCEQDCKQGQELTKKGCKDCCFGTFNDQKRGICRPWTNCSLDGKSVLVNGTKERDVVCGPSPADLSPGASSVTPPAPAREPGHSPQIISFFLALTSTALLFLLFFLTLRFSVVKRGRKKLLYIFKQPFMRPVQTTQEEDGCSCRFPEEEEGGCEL

B1: Ly750 (bispecific antibody, human IgG1, kappa)
heavy: QVQLQESGPGLVKPSETLSLTCTVSGFSLTSYNVHWIRQPPGKGLEWIGVIWSGVRTDYNSVLKSRVTISVDTSKNQFSLKLSSVTAADTAVYYCARGTYDANYHDVMDAWGQGTMVTVSSASTKGPSVFPLAPSSKSTSGGTAALGCLVKDYFPEPVTVSWNSGALTSGVHTFPAVLQSSGLYSLSSVVTVPSSSLGTQTYICNVNHKPSNTKVDKKVEPKSCDKTHTCPPCPAPELLGPSVFLFPPKPKDTLMISRTPEVTCVVVDVSHEDPEVKFNWYVDGVEVHNAKTKPREEQYNSTYRVVSVLTVLHQDWLNGKEYKCKVSNKALPAPIEKTISKAKGQPREPQVYTLPPSREEMTKNQVSLTCLVKGFYPSDIAVEWESNGQPENNYKTTPPVLDSDGSFFLYSKLTVDKSRWQQGNVFSCSVMHEALHNHYTQKSLSLSPGGGGGSGGGGSGGGGSGGGGSDIQMTQSPSSLSASVGDRVTITCRASQDIRSNLNWYQQKPGGAVKLLIYYTSRLHSGVPSRFSGSGSGTDYTLTISSLQPEDFATYFCQQSEKLPRTFGGGTKVEIRGGGGSGGGGSGGGGSGGGGSQVQLVQSGAEVKKPGASVKVSCKASGYTFAGFEMHWVRQAPGQGLEWMGAIDPKTGGTDYNQKFKDRVTMTRDTSISTAYMELSRLRSDDTAVYYCARDLGYFDVWGQGTLVTVSS
light: DTVLTQSPATLSLSPGERATLSCRASKSVRTGMHWYQQKPGQAPRLLVYGASNLESGIPARFSGSGSGTDFTLTISSLEPEDFATYFCHQSWNHFTFGQGTKLEIKRTVAAPSVFIFPPSDEQLKSGTASVVCLLNNFYPREAKVQWKVDNALQSGNSQESVTEQDSKDSTYSLSSTLTLSKADYEKHKVYACEVTHQGLSSPVTKSFNRGEC
notes: Anti-GITR/CD137: TM677 heavy chain fused to Ly1630 scFv (VL-VH)
binding result [1]: binds | EC50 (read off the curve) [2]: ~200 ng/mL

B2: Ly751 (bispecific antibody, human IgG1, kappa)
heavy: QVQLQESGPGLVKPSETLSLTCTVSGFSLTSYNVHWIRQPPGKGLEWIGVIWSGVRTDYNSVLKSRVTISVDTSKNQFSLKLSSVTAADTAVYYCARGTYDANYHDVMDAWGQGTMVTVSSASTKGPSVFPLAPSSKSTSGGTAALGCLVKDYFPEPVTVSWNSGALTSGVHTFPAVLQSSGLYSLSSVVTVPSSSLGTQTYICNVNHKPSNTKVDKKVEPKSCDKTHTCPPCPAPELLGPSVFLFPPKPKDTLMISRTPEVTCVVVDVSHEDPEVKFNWYVDGVEVHNAKTKPREEQYNSTYRVVSVLTVLHQDWLNGKEYKCKVSNKALPAPIEKTISKAKGQPREPQVYTLPPSREEMTKNQVSLTCLVKGFYPSDIAVEWESNGQPENNYKTTPPVLDSDGSFFLYSKLTVDKSRWQQGNVFSCSVMHEALHNHYTQKSLSLSPGGGGGSGGGGSGGGGSGGGGSQVQLVQSGAEVKKPGASVKVSCKASGYTFAGFEMHWVRQAPGQGLEWMGAIDPKTGGTDYNQKFKDRVTMTRDTSISTAYMELSRLRSDDTAVYYCARDLGYFDVWGQGTLVTVSSGGGGSGGGGSGGGGSGGGGSDIQMTQSPSSLSASVGDRVTITCRASQDIRSNLNWYQQKPGGAVKLLIYYTSRLHSGVPSRFSGSGSGTDYTLTISSLQPEDFATYFCQQSEKLPRTFGGGTKVEIR
light: B1 light
notes: Anti-GITR/CD137: TM677 heavy chain fused to Ly1630 scFv (VH-VL); TM677 light chain
binding result [1]: binds | EC50 (read off the curve) [2]: ~200 ng/mL

B3: TM677 (antibody, human IgG1, kappa, V domains shown)
VH: QVQLQESGPGLVKPSETLSLTCTVSGFSLTSYNVHWIRQPPGKGLEWIGVIWSGVRTDYNSVLKSRVTISVDTSKNQFSLKLSSVTAADTAVYYCARGTYDANYHDVMDAWGQGTMVTVSS
VL: DTVLTQSPATLSLSPGERATLSCRASKSVRTGMHWYQQKPGQAPRLLVYGASNLESGIPARFSGSGSGTDFTLTISSLEPEDFATYFCHQSWNHFTFGQGTKLEIKR
notes: Humanized anti-GITR antibody with VL back mutations; also called humanized LYV392 antibody (VH-1/IgG1 mut, VL-2/kappa)
EC50 (read off the curve) [1]: ~700 ng/mL

B4: TM685 (antibody, human IgG1, kappa, V domains shown)
VH: B3 VH with S65P, A102D, M116L
VL: B3 VL with D1E, T2I, V48I, T85V, F87Y, H89Q
notes: Humanized anti-GITR antibody; also called humanized LYV396 antibody (LYV396_VH-1/IgG1mut, LYV396_VL-1/kappa)
EC50 (read off the curve) [1]: ~700 ng/mL

B6: Ly753 (bispecific antibody, human IgG1, kappa)
heavy: QVQLQESGPGLVKPSETLSLTCTVSGFSLTSYNVHWIRQPPGKGLEWIGVIWSGVRTDYNSVLKSRVTISVDTSKNQFSLKLSSVTAADTAVYYCARGTYDANYHDVMDAWGQGTMVTVSSASTKGPSVFPLAPSSKSTSGGTAALGCLVKDYFPEPVTVSWNSGALTSGVHTFPAVLQSSGLYSLSSVVTVPSSSLGTQTYICNVNHKPSNTKVDKKVEPKSCDKTHTCPPCPAPELLGPSVFLFPPKPKDTLMISRTPEVTCVVVDVSHEDPEVKFNWYVDGVEVHNAKTKPREEQYNSTYRVVSVLTVLHQDWLNGKEYKCKVSNKALPAPIEKTISKAKGQPREPQVYTLPPSREEMTKNQVSLTCLVKGFYPSDIAVEWESNGQPENNYKTTPPVLDSDGSFFLYSKLTVDKSRWQQGNVFSCSVMHEALHNHYTQKSLSLSPGK
light: DTVLTQSPATLSLSPGERATLSCRASKSVRTGMHWYQQKPGQAPRLLVYGASNLESGIPARFSGSGSGTDFTLTISSLEPEDFATYFCHQSWNHFTFGQGTKLEIKRTVAAPSVFIFPPSDEQLKSGTASVVCLLNNFYPREAKVQWKVDNALQSGNSQESVTEQDSKDSTYSLSSTLTLSKADYEKHKVYACEVTHQGLSSPVTKSFNRGECGGGGSGGGGSGGGGSGGGGSQVQLVQSGAEVKKPGASVKVSCKASGYTFAGFEMHWVRQAPGQGLEWMGAIDPKTGGTDYNQKFKDRVTMTRDTSISTAYMELSRLRSDDTAVYYCARDLGYFDVWGQGTLVTVSSGGGGSGGGGSGGGGSGGGGSDIQMTQSPSSLSASVGDRVTITCRASQDIRSNLNWYQQKPGGAVKLLIYYTSRLHSGVPSRFSGSGSGTDYTLTISSLQPEDFATYFCQQSEKLPRTFGGGTKVEIR
notes: Anti-GITR/CD137: TM677-derived heavy chain; TM677 light chain fused to Ly1630 scFv (VH-VL)
EC50 (read off the curve) [2]: ~700 ng/mL

Further lines, results first:

EC50 (read off the curve) [2]: ~400 ng/mL
B5: Ly752 (bispecific antibody, human IgG1, kappa)
heavy: B6 heavy
light: DTVLTQSPATLSLSPGERATLSCRASKSVRTGMHWYQQKPGQAPRLLVYGASNLESGIPARFSGSGSGTDFTLTISSLEPEDFATYFCHQSWNHFTFGQGTKLEIKRTVAAPSVFIFPPSDEQLKSGTASVVCLLNNFYPREAKVQWKVDNALQSGNSQESVTEQDSKDSTYSLSSTLTLSKADYEKHKVYACEVTHQGLSSPVTKSFNRGECGGGGSGGGGSGGGGSGGGGSDIQMTQSPSSLSASVGDRVTITCRASQDIRSNLNWYQQKPGGAVKLLIYYTSRLHSGVPSRFSGSGSGTDYTLTISSLQPEDFATYFCQQSEKLPRTFGGGTKVEIRGGGGSGGGGSGGGGSGGGGSQVQLVQSGAEVKKPGASVKVSCKASGYTFAGFEMHWVRQAPGQGLEWMGAIDPKTGGTDYNQKFKDRVTMTRDTSISTAYMELSRLRSDDTAVYYCARDLGYFDVWGQGTLVTVSS
notes: Anti-GITR/CD137: TM677-derived heavy chain; TM677 light chain fused to Ly1630 scFv (VL-VH)

binding result [1]: binds
B7: Ly748 (bispecific antibody, human IgG1, kappa)
heavy: QVQLVQSGAEVKKPGASVKVSCKASGYTFAGFEMHWVRQAPGQGLEWMGAIDPKTGGTDYNQKFKDRVTMTRDTSISTAYMELSRLRSDDTAVYYCARDLGYFDVWGQGTLVTVSSASTKGPSVFPLAPSSKSTSGGTAALGCLVKDYFPEPVTVSWNSGALTSGVHTFPAVLQSSGLYSLSSVVTVPSSSLGTQTYICNVNHKPSNTKVDKKVEPKSCDKTHTCPPCPAPELLGPSVFLFPPKPKDTLMISRTPEVTCVVVDVSHEDPEVKFNWYVDGVEVHNAKTKPREEQYNSTYRVVSVLTVLHQDWLNGKEYKCKVSNKALPAPIEKTISKAKGQPREPQVYTLPPSREEMTKNQVSLTCLVKGFYPSDIAVEWESNGQPENNYKTTPPVLDSDGSFFLYSKLTVDKSRWQQGNVFSCSVMHEALHNHYTQKSLSLSPGK
light: DIQMTQSPSSLSASVGDRVTITCRASQDIRSNLNWYQQKPGGAVKLLIYYTSRLHSGVPSRFSGSGSGTDYTLTISSLQPEDFATYFCQQSEKLPRTFGGGTKVEIRRTVAAPSVFIFPPSDEQLKSGTASVVCLLNNFYPREAKVQWKVDNALQSGNSQESVTEQDSKDSTYSLSSTLTLSKADYEKHKVYACEVTHQGLSSPVTKSFNRGECGGGGSGGGGSGGGGSGGGGSDTVLTQSPATLSLSPGERATLSCRASKSVRTGMHWYQQKPGQAPRLLVYGASNLESGIPARFSGSGSGTDFTLTISSLEPEDFATYFCHQSWNHFTFGQGTKLEIKGGGGSGGGGSGGGGSGGGGSQVQLQESGPGLVKPSETLSLTCTVSGFSLTSYNVHWIRQPPGKGLEWIGVIWSGVRTDYNSVLKSRVTISVDTSKNQFSLKLSSVTAADTAVYYCARGTYDANYHDVMDAWGQGTMVTVSS
notes: Anti-GITR/CD137: Ly1630 heavy chain; Ly1630 light chain fused to TM677 scFv (VL-VH)

EC50 (read off the curve) [2]: ~200 ng/mL
B8: Ly754 (bispecific antibody, human IgG1, kappa)
heavy: QVQLVQSGAEVKKPGASVKVSCKASGYTFAGFEMHWVRQAPGQGLEWMGAIDPKTGGTDYNQKFKDRVTMTRDTSISTAYMELSRLRSDDTAVYYCARDLGYFDVWGQGTLVTVSSASTKGPSVFPLAPSSKSTSGGTAALGCLVKDYFPEPVTVSWNSGALTSGVHTFPAVLQSSGLYSLSSVVTVPSSSLGTQTYICNVNHKPSNTKVDKKVEPKSCDKTHTCPPCPAPELLGPSVFLFPPKPKDTLMISRTPEVTCVVVDVSHEDPEVKFNWYVDGVEVHNAKTKPREEQYNSTYRVVSVLTVLHQDWLNGKEYKCKVSNKALPAPIEKTISKAKGQPREPQVYTLPPSREEMTKNQVSLTCLVKGFYPSDIAVEWESNGQPENNYKTTPPVLDSDGSFFLYSKLTVDKSRWQQGNVFSCSVMHEALHNHYTQKSLSLSPGGGGGSGGGGSGGGGSGGGGSEIVLTQSPATLSLSPGERATLSCRASKSVRTGMHWYQQKPGQAPRLLIYGASNLESGIPARFSGSGSGTDFTLTISSLEPEDFAVYYCQQSWNHFTFGQGTKLEIKGGGGSGGGGSGGGGSGGGGSQVQLQESGPGLVKPSETLSLTCTVSGFSLTSYNVHWIRQPPGKGLEWIGVIWSGVRTDYNSVLKPRVTISVDTSKNQFSLKLSSVTAADTAVYYCARGTYDDNYHDVMDAWGQGTLVTVSS
light: DIQMTQSPSSLSASVGDRVTITCRASQDIRSNLNWYQQKPGGAVKLLIYYTSRLHSGVPSRFSGSGSGTDYTLTISSLQPEDFATYFCQQSEKLPRTFGGGTKVEIRRTVAAPSVFIFPPSDEQLKSGTASVVCLLNNFYPREAKVQWKVDNALQSGNSQESVTEQDSKDSTYSLSSTLTLSKADYEKHKVYACEVTHQGLSSPVTKSFNRGEC
notes: Anti-GITR/CD137: Ly1630 heavy chain fused to TM685 scFv (VL-VH); Ly1630 light chain
